B1: Adapter protein MecA 1 (Bacillus subtilis), P37958 (parent)
chain: MEIERINEHTVKFYMSYGDIEDRGFDREEIWYNRERSEELFWEVMDEVHEEEEFAVEGPLWIQVQALDKGLEIIVTKAQLSKDGQKLELPIPEDKKQEPASEDLDALLDDFQKEEQAVNQEEKEQKLQFVLRFGDFEDVISLSKLNVNGSKTTLYSFENRYYLYVDFCNMTDEEVENQLSILLEYATESSISIHRLEEYGKLIISEHALETIKKHFAS
partner: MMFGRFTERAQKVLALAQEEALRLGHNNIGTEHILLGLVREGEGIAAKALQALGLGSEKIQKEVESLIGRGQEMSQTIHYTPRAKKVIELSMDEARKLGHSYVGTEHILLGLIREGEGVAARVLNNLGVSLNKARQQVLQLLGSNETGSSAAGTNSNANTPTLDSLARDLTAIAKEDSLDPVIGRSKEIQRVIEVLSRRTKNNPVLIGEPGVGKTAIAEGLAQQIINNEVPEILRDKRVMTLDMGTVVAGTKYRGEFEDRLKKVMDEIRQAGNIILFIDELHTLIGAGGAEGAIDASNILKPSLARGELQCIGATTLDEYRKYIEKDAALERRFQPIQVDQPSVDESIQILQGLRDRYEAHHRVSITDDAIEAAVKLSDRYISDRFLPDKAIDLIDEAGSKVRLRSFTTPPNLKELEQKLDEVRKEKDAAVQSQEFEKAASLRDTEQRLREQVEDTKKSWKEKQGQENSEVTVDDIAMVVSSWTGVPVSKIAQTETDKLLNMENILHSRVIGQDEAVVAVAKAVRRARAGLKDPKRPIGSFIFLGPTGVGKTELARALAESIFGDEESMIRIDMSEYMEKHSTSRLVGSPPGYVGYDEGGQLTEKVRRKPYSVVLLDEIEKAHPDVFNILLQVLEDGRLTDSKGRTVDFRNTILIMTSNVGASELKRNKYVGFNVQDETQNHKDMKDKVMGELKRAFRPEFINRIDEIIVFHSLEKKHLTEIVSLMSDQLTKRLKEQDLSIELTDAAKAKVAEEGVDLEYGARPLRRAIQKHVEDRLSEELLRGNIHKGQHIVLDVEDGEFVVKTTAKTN

Variants of: B1
Conditions: with clpc_bacsu clpC

Variant	effect of a mutation on the interaction
E184R	disrupting interaction
